Source: patent publication US20200157212A1 (Pfizer, published 2020)

T1: Human ROBO2 overexpressed on HEK293 cells (human, UniProt Q9HCK4 22-1378)
T1 construct: also called ROBO2 cells; native ROBO2
T1 sequence: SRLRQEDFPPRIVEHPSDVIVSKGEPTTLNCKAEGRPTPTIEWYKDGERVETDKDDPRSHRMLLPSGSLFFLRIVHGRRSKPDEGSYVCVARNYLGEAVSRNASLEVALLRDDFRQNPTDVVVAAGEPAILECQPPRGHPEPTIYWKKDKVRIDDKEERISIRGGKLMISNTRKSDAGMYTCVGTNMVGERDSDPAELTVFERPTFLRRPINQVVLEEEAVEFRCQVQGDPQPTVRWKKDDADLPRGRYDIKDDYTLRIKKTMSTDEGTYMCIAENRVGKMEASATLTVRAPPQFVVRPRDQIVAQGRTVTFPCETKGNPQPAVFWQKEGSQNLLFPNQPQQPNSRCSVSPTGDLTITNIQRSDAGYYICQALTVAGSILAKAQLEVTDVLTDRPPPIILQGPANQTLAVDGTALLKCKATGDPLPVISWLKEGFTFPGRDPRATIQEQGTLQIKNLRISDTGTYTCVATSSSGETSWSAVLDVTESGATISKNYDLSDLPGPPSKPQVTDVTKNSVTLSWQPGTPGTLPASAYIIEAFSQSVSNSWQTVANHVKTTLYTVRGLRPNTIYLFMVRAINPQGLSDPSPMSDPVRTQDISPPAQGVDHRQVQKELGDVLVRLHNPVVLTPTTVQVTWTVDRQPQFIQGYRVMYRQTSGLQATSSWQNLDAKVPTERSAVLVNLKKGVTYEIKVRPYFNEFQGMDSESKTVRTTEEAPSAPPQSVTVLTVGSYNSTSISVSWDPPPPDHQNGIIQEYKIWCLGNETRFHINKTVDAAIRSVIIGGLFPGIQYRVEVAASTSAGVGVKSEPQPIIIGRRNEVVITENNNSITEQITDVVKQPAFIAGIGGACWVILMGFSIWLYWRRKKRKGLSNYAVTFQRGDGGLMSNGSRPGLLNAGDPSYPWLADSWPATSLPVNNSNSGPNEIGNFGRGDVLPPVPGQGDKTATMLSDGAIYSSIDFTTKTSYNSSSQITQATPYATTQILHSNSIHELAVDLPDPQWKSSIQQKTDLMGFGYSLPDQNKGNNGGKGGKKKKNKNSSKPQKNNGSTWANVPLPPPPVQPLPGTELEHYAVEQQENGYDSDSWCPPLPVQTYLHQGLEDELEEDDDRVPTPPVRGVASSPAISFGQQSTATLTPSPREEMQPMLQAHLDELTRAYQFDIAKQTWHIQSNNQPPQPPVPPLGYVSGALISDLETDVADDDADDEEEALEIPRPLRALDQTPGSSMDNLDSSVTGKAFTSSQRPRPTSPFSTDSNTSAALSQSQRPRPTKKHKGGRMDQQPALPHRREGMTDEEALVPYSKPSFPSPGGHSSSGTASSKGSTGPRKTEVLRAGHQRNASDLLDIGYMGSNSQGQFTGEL


Experiments:
[1] = target: T1, Human ROBO2 overexpressed on HEK293 …; assay: flow cytometry, HEK293 cells overexpressing human ROBO2
Protocol: (§1) Binding of the antibodies was detected using a secondary fluorochrome conjugated anti-human IgG F(ab′)₂ antibody and samples were analyzed on a Fortessa cytometer (BD Biosciences). The fold ROBO2 selectivity was calculated as the geometric mean fluorescence intensity (Geo MFI) with ROBO2 cells/Geo MFI with ROBO1 cells. A fold change higher than 3 was considered to be ROBO2 specific (Table 2, Fold Selectivity). Some affinity matured clones had increased ROBO1 reactivity, for example Abcs 55, CTI-R2-10 and CTIR2-13.
(§2) Based upon several criteria, Abcs25 and Abcs35 were selected for further characterization. Using flow cytometry, improvement in the binding EC₅₀ to human ROBO2 relative to the parental 93H2 was evaluated. Starting at 6.7 nM, 11-point, 3-fold dilution series were made for each antibody and used to stain HEK293 overexpressing human ROBO2 as described above for the ROBO2 fold selectivity (Example 2). […] In addition to measuring improved binding to human ROBO2, it was important to ensure that high affinity binding to both cynomolgus monkey ROBO2 and rat ROBO2 was maintained. Using HEK293 cells overexpressing either cynomolgus monkey ROBO2 or rat ROBO2, the relative dose-dependent binding of 93H2, Abcs25 and Abcs35 was evaluated as described above. High affinity binding to both cynomolgus monkey and rat ROBO2 was maintained in Abcs25 and Abcs35 (Table 4). […] Briefly, Abcs35 was immobilized to 300 resonance units (RU) on a CM5 chip. Association of ROBO2 Ig1-Ig2-His (ROBO2) was measured over 5 minutes and dissociation was followed for a period of 10 minutes.

[2] = target: T2, Human ROBO1 RSK mutant overexpressed on HEK293 cells (human, UniProt Q9Y6N7 26-1651); assay: flow cytometry, HEK293 ROBO1-RSK cells
T2 construct: K137R and R139K already in the entry; also called ROBO1-RSK cells
T2 sequence (Q9Y6N7 other isoform, or with tags, fused parts or gaps mutant limits assumed): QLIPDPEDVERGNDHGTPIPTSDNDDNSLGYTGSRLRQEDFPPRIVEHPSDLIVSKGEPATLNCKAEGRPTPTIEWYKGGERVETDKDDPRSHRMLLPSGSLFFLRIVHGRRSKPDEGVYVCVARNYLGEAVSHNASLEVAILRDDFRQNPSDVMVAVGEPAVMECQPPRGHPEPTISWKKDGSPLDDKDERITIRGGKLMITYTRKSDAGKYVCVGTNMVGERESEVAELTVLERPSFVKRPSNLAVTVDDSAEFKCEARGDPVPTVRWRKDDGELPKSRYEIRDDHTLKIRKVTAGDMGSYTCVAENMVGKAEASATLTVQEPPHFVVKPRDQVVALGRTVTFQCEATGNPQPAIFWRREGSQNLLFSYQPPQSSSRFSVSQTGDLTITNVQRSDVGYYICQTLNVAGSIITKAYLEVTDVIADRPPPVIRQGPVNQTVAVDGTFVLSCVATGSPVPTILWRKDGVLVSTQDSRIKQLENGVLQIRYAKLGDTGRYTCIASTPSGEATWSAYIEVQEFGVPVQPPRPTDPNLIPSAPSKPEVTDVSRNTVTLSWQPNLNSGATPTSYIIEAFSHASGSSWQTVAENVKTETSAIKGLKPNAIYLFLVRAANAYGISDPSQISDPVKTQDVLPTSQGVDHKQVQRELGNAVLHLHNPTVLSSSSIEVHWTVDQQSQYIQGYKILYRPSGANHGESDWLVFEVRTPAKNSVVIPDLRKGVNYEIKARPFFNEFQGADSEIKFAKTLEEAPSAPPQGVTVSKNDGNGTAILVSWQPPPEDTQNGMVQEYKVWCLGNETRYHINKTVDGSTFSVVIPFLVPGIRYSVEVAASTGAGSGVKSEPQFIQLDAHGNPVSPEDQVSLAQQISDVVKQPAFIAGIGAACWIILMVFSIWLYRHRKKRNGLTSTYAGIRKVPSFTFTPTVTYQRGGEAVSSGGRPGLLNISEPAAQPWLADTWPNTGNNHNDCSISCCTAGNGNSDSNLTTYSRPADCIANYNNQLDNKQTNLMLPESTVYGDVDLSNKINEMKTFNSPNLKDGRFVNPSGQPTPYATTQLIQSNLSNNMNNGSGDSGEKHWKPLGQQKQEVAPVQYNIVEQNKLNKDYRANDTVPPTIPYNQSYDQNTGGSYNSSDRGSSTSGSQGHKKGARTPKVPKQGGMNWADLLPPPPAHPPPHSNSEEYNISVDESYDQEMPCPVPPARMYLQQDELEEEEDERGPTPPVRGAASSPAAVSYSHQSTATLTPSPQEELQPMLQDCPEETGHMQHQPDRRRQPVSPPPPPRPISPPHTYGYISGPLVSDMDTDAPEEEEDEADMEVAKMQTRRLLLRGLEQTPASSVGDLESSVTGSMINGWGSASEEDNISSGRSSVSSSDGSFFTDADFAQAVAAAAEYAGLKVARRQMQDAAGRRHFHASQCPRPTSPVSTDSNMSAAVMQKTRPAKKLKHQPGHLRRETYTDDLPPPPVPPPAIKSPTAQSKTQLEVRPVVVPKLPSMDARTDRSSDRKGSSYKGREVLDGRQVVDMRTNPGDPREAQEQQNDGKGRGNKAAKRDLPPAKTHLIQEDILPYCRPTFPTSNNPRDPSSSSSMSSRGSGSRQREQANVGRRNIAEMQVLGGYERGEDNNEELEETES
Protocol: as §1, §2
RSK specificity for Abcs35, along with 93H2 and Abcs25, also was confirmed in a cell-based binding assay using flow cytometry. HEK293 cells overexpressing ROBO2 containing the KSR sequence from ROBO1 (ROBO2-KSR) or ROBO1 containing the RSK sequence from ROBO2 (ROBO1-RSK) were generated. As described above in Example 3, dose-dependent binding was evaluated.

[3] = target: T1, Human ROBO2 overexpressed on HEK293 …; assay: flow cytometry, HEK293 cells, average of n = 5
Protocol: as §1, §2

EC50 [1] [nM]	EC50 [2] [nM]	EC50 [3] [nM]	Binder
0.133	0.37	0.133	93H2 (antibody, human IgG1, kappa, V domains shown, also called parental 93H2; 93H2 mAb) VH: EVQLVQSGAEVKKPGASVKVSCKASGYTFTGYYMHWVRQAPGQGLEWMGWINPNSGATNFPQKFQGRVTMTRDTSITTAYMDLSRLRSDDTAVYYCARESGDDAFDIWGQGTMVTVSS VL: not shown
0.056	0.061	0.068	Abcs25 (antibody, human IgG1, kappa, V domains shown, chain-shuffled IgG) VH: EVQLVQSGAEVKKPGASVKVSCKASGYTFTGYYMHWVRQAPGQGLEWMGWINPKDGDTEFPQKFQGRVTMTRDTSITTAYMDLSRLRSDDTAVYYCARESGDDAFDIWGQGTMVTVSS VL: DIVMTQSPSSLSASVGDRVTITCRASQSISSYLNWYQQKPGKAPKLLIYAASSLQSGVPSRFSGSGSGTDFTLTISSLQPEDFATYYCQQSVGLSFGGGTKVEIKR

Binder	EC50 [1] [nM]	EC50 [2] [nM]	EC50 [3] [nM]
Abcs35 (antibody, human IgG1, kappa, fully human IgG1; VH of Ab96 with VL of Ab123) heavy: EVQLVQSGAEVKKPGASVKVSCKASGYTFTGYYMHWVRQAPGQGLEWMGWINPKNGDTEFPQKFQGRVTMTRDTSITTAYMDLSRLRSDDTAVYYCARESGDDAFDIWGQGTMVTVSSASTKGPSVFPLAPSSKSTSGGTAALGCLVKDYFPEPVTVSWNSGALTSGVHTFPAVLQSSGLYSLSSVVTVPSSSLGTQTYICNVNHKPSNTKVDKKVEPKSCDKTHTCPPCPAPEAAGAPSVFLFPPKPKDTLMISRTPEVTCVVVDVSHEDPEVKFNWYVDGVEVHNAKTKPREEQYNSTYRVVSVLTVLHQDWLNGKEYKCKVSNKALPAPIEKTISKAKGQPREPQVYTLPPSREEMTKNQVSLTCLVKGFYPSDIAVEWESNGQPENNYKTTPPVLDSDGSFFLYSKLTVDKSRWQQGNVFSCSVMHEALHNHYTQKSLSLSPGK light: DIVMTQSPSSLSASVGDRVTITCRASQSISSYLNWYQQKPGKAPKLLIYAASSLQSGVPSRFSGSGSGTDFTLTISSLQPEDFATYYCQQSVGLFFGGGTKVEIKRTVAAPSVFIFPPSDEQLKSGTASVVCLLNNFYPREAKVQWKVDNALQSGNSQESVTEQDSKDSTYSLSSTLTLSKADYEKHKVYACEVTHQGLSSPVTKSFNRGEC	0.055	0.074	0.082
